Assay results published in patent publication US20230192902A1 (KENJOCKETY BIOTECHNOLOGY, published 2023).

Target: T1, human ABCG2 (human, UniProt Q9UNQ0 1-655)
T1 construct: also called CD388; BCRP
T1 sequence: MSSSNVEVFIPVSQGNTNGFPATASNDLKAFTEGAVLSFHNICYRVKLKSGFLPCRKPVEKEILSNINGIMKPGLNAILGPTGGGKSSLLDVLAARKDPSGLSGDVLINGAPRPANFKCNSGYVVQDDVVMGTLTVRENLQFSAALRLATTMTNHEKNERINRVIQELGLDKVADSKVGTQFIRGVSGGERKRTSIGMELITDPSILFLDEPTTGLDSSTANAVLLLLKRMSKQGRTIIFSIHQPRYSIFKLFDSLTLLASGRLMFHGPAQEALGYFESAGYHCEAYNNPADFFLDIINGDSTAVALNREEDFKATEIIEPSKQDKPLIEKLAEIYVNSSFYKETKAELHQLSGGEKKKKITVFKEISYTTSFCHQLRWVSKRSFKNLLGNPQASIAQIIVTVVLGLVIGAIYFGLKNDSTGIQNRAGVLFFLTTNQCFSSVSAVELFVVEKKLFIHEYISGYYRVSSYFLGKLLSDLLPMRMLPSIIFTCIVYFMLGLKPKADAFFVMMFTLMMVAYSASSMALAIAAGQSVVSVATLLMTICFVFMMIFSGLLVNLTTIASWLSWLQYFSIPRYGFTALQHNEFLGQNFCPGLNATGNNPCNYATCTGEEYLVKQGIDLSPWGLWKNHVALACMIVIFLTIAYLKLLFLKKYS
Test: flow cytometry on 293T cells stably expressing human ABCG2

binding result: binds
B1: anti-ABCG2 antibody 5D3 (antibody, V domains shown)
VH: QVQLQESGPGLVKPSQSLSLTCTVTGFSITSDYAWNWIRQFPGKKLEWMGYINFDGGTTYNPSLRGRISITRDTSKNQFFLQLRSVTPEDTATYYCATFYGAKGTLDYWGQGTSVTVSS
VL: DIVLTQSPSSFSVSLGDRVTISCKASGYILNRLAWYQQKPGNAPRLLISGATSLETGFPSRFSGTGSGKDYTLSISSLQTEDVGTYYCQQYWSTPWTFGGGTKLEIR
